Five molecules from patent US20220306765A1 (SUZHOU TRANSCENTA THERAPEUTICS, published 2022) can be followed below.

Where a chain is given by its changes, count along the chain named. Numbers in names are those of the source. Like-named read-outs stand apart in the source and are kept apart here.

Assay [1] deals with T1, human CLDN18.2 (human).
T1 construct: also called hCLDN18.2; Claudin-18 splice variant 2
Description: flow cytometry on SNU-601 cells; unit taken from the concentration axis; the fitted value lies far above the highest concentration tested (about 30 ug/ml); the curve rises only from about 2 ug/ml on, to Mean FITC-A about 35000.

Assay [2] has as its target T1, human CLDN18.2. Description: flow cytometry on MKN45-CLDN18.2-medium cells; unit taken from the concentration axis; the fitted value lies far above the highest concentration tested (about 60 ug/ml); the curve lies on the isotype control up to about 7 ug/ml and reaches Mean FITC about 4200 at about 60 ug/ml. A general note: Flow cytometry measures light scatter and fluorescence of single cells or particles in a stream.
Description: (§1) Log-phase HEK293-CLDN18.2 and NUGC4 cells were re-suspended in PBS. After 3× cell wash by using FACS washing buffer (PBS+2% FBS), 100 μl/well diluted hybridoma Abs with a range from 400 nM to 0.002 nM were added into each well for incubation at 4° C. for 30 min. Again, cells were washed 3 times by using FACS washing buffer and then incubated with 100 μl/well goat anti-mIgG-FITC (1:400 dilution) at 4° C. for another 30 min. After a final 3× wash using FACS washing buffer, cells were analyzed by flow Cytometry.

The target in assay [3] is T1, human CLDN18.2. Description: flow cytometry on MKN45-CLDN18.2-high cells; unit taken from the concentration axis.
Description: as §1
For assay [4], the target named is T1, human CLDN18.2. Description: FACS, HEK293-CLDN18.2 cells; binds: FACS on overexpressing HEK293-CLDN18.2 cells.
Assay [5] deals with T1, human CLDN18.2. Description: flow cytometry on BxPC-3-CLDN18.2 cells (y axis printed as Luminescence); unit taken from the concentration axis.
Assay [6] addresses T2, human CLDN18.2-mRFP1, wild-type (human).
T2 construct: human CLDN18.2 (amino acid 1-261) fused to mRFP1 (amino acid 1-225), transiently expressed in HEK293 cells; also called wild-type human CLDN18.2-mRFP
The experiment in a line: FACS, transfected HEK293, 10 µg/ml antibody.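 Also: antibody binding read by flow cytometry with a FITC-labelled anti-human IgG secondary, gated on RFP-positive cells, each mutant signal expressed against wild-type CLDN18.2.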
Description: The transfected HEK293-CLDN18.2 or HEK293-CLDN18.1 cell were resuspended in PBS with 2% BSA at density of 10\hat{ }5/well, 100 μl/well. […] Next, cells were washed 3 times by FACS washing buffer and incubated with 100 μl/well goat anti-hIgG (H+L)-FITC (1:200 dilution) at 4° C. for another 30 min. Finally, cells were washed 3 times by FACS washing buffer and analyzed by Flow Cytometry. To analyze binding to CLDN18.2 transfected cells, the RFP positive cells were used for control gating.

Assay [7] has as its target T1, human CLDN18.2. The experiment in a line: flow cytometry on MIA PaCa-2-CLDN18.2 cells (y axis printed as Luminescence); unit taken from the concentration axis.
The target in assay [8] is T1, human CLDN18.2. Description: KinExA, NUGC4 cells; binds: Kd on NUGC4 gastric cells (endogenous CLDN18.2), affinity assay, not FACS EC50.
Assay [9] addresses T1, human CLDN18.2. Description: cell-based or functional assay.
The target of assay [10] is T1, human CLDN18.2. The experiment in a line: flow cytometry on KATOIII cells; unit taken from the concentration axis; the fitted value lies far above the highest concentration tested (about 30 ug/ml); the curve rises only from about 2 ug/ml on, to Mean FITC-A about 43000.
The target in assay [11] is T1, human CLDN18.2. Description: flow cytometry on NUGC4 cells, goat anti-mIgG-FITC.
Description: as §1
Assay [12] addresses T1, human CLDN18.2. Description: flow cytometry on HEK293-CLDN18.2 cells, goat anti-mIgG-FITC; unit taken from the concentration axis.
Description: as §1
The target of another assay is T3, human CLDN18.1 (human, UniProt P56856 1-261).
T3 construct: on HEK293-CLDN18.1 cells; also called Claudin-18 splice variant 1; NP_057453.1
The experiment in a line: FACS, hybridoma supernatant, HEK293-CLDN18.1 cells.

The target of assay [13] is T1, human CLDN18.2. Description: FACS, HEK293-CLDN18.2 cells.
Description: as §1
In assay [14] the target is T1, human CLDN18.2. Description: flow cytometry on NUGC4 cells, goat anti-mIgG-FITC. This is another data set of the same source.
Description: as §1
A further assay deals with T4, mouse FcγRIIB-his (mouse, UniProt P08101 30-207, limits assumed).
T4 sequence (looked up): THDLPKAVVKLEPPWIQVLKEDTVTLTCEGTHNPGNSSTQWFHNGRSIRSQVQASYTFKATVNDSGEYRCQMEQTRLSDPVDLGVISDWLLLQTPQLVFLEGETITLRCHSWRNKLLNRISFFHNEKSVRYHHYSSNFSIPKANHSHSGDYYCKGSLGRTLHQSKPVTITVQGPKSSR
Description: ELISA: antibody coated at 1 ug/ml, Mouse FcγRIIB-his titrated, anti-His-HRP; the concentration axis is that of the receptor.

Assay [15] deals with T5, human FcγRIIIa-V176 (human, UniProt P08637 17-208).
T5 construct: His-tagged (ELISA); whole receptor on Jurkat-NFAT-luc-FcγRIIIA-V176 cells in the ADCC reporter assay; also called hFcγRIIIA (V176)-his
Description: ELISA, antibody coated, His-tagged FcγR in solution. A general note: An ELISA detects its analyte on a solid surface through an enzyme-linked reagent.
Description: (§2) After blocking and washing, the serial diluted (5 g/ml˜0.02 μg/ml) FcγRs labeled with His-tag were added and incubated for 1 h. Then anti-His-HRP and TMB were added for detection of FcγR binding at OD450 nm.

A further assay deals with T6, human FcγRIIIa-F176 (human, UniProt P08637 17-208).
T6 construct: His-tagged (ELISA); also called hFcγRIIIA (F176)-his
The assay is described as above.

A further assay addresses human C1q (human, UniProt P02745 23-245; P02746 28-253; P02747 29-245). The experiment in a line: ELISA: antibody immobilised, human C1q titrated, anti-C1q-HRP; the concentration axis is that of C1q.
The target of the next assay is T7, mouse FcγRI-his (mouse, UniProt P26151 25-297).
T7 sequence (looked up): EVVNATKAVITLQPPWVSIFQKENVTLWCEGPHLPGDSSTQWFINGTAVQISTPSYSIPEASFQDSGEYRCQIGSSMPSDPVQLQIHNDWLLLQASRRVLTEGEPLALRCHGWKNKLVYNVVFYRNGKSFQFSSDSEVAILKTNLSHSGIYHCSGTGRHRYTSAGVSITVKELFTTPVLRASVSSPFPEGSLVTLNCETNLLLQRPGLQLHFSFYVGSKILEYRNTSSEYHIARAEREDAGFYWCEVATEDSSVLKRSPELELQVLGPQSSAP
The experiment in a line: ELISA: antibody coated at 1 ug/ml, Mouse FcγRI-his titrated, anti-His-HRP; the concentration axis is that of the receptor.

The next assay addresses T8, human FcγRI (human, UniProt P12314 16-288).
T8 construct: also called hFcγRI-his
The experiment in a line: ELISA: antibody coated at 1 ug/ml, hFcγRI-his titrated, anti-His-HRP; the concentration axis is that of the receptor.

Assay [16] has as its target T9, Human FcRn (FCGRT&B2M) Protein (human, UniProt P55899 24-297; P61769 21-119).
T9 construct: also called huFcRn-biotin
The experiment in a line: ELISA at pH 6.0: antibody immobilised, biotinylated FcRn titrated, Streptavidin-HRP; the concentration axis is that of FcRn.
Description: FcRn binding was evaluated by an ELISA method. […] Biotinylated FcRn was serial diluted in a pH6.0 dilution buffer (1 μg/ml˜0.0002 μg/ml) and then added for 1 h incubation. Next, Streptavidin-HRP and TMB were added for detection of binding at OD450 nm.

Assay [17] addresses T5, human FcγRIIIa-V176. The experiment in a line: ELISA: antibody coated at 1 ug/ml, hFcγRIIIA(V176)-his titrated, anti-His-HRP; the concentration is that of the receptor.
Description: as §2
The target of assay [18] is T5, human FcγRIIIa-V176. Description: cell-based or functional assay.
The target in the next assay is T10, Cyno FcγRIII-his (cyno, UniProt Q8SPW2 17-208).
T10 construct: also called cyno FcγRs
The experiment in a line: ELISA: antibody coated, Cyno FcγRIII-his titrated, anti-His-HRP; the concentration axis is that of the receptor.

In the next assay the target is T11, FcγRIV-his (Mus musculus (Mouse), UniProt A0A0B4J1G0 21-203).
T11 sequence: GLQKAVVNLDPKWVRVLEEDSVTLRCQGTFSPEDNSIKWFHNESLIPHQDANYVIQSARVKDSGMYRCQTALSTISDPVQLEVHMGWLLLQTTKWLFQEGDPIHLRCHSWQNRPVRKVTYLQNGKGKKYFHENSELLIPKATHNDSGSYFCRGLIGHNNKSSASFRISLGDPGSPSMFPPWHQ
Description: ELISA: antibody coated at 1 ug/ml, Mouse FcγRIV-his titrated, anti-His-HRP; the concentration is that of the receptor.

T3 sequence (P56856 whole entry, canonical isoform): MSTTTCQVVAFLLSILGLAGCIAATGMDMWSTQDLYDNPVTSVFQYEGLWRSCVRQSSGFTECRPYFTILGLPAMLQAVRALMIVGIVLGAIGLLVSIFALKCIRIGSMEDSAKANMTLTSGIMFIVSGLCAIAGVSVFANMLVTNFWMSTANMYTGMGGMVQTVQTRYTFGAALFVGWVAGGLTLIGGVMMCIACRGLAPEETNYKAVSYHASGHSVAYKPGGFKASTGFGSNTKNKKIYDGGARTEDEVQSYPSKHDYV
T5 sequence (P08637 17-208 F176V limits assumed): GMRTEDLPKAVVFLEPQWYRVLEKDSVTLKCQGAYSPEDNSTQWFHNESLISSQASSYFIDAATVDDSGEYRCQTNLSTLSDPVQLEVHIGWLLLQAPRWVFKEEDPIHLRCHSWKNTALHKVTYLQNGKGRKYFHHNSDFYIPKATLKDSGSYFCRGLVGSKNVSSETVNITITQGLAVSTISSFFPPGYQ
Chain of human C1q (P02745 23-245, chain 1 of 3): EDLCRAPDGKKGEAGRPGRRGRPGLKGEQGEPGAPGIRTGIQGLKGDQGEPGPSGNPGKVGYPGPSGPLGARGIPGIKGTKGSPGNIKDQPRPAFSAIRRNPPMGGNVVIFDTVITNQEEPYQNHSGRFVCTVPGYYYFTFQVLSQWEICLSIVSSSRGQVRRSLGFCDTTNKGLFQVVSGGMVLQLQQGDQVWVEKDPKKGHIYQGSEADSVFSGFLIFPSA
Chain of human C1q (P02746 28-253, chain 2 of 3): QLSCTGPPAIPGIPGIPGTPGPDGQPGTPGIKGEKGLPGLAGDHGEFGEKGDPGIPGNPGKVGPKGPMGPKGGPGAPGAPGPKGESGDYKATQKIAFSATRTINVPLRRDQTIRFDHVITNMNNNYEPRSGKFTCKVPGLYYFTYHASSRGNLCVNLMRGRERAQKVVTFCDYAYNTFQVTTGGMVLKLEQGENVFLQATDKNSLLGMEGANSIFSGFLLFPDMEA
Chain of human C1q (P02747 29-245, chain 3 of 3): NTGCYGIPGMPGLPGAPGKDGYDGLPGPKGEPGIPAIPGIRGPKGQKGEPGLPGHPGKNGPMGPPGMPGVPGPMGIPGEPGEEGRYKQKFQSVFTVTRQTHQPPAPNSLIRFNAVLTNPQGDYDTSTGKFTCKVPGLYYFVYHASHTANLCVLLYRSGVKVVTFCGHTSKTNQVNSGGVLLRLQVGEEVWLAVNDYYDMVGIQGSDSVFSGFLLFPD
T10 sequence (Q8SPW2 17-208 limits assumed): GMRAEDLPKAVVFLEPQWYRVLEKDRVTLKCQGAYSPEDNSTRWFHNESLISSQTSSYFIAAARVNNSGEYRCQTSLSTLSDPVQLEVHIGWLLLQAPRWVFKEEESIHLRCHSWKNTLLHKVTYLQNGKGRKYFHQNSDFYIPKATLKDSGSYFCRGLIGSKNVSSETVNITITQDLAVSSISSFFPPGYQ
T9 sequence (P55899 24-297 limits assumed, chain 1 of 2): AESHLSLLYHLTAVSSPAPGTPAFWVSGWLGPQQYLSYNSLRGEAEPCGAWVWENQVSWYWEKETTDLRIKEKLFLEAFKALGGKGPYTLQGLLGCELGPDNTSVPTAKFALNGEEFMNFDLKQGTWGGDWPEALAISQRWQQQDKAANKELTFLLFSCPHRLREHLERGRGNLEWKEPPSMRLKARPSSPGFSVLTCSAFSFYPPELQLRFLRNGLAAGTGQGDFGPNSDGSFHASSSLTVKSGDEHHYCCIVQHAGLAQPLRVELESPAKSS
T9 sequence (P61769 21-119 limits assumed, chain 2 of 2): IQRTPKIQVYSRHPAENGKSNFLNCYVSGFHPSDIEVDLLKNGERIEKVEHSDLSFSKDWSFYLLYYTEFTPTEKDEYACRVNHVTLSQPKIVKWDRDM
T6 sequence (P08637 17-208 limits assumed): as the sequence (P08637 17-208 F176V limits assumed) above, with V160F counted along it
T8 sequence (P12314 16-288 limits assumed): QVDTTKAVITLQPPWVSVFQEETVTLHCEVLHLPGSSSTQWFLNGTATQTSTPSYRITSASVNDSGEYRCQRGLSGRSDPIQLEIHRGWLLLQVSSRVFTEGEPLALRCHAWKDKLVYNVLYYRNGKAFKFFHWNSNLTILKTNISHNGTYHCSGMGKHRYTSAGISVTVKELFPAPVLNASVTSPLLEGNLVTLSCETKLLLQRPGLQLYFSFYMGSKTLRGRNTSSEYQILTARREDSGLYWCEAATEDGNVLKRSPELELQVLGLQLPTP
Description for Cyno FcγRIII-his: as §2
Description for FcγRIV-his: as §2
Description for human C1q: C1q binding assay was taken following method. Two antibodies were immobilized on the plate. […] Then anti-C1q-HRP and TMB were added for detection at OD450 nm.
Description for human CLDN18.1: Log-phase CLDN18.1 expressing HEK293-CLDN18.1 cells were resuspended in PBS at a density of 10\hat{ }5/100 μl per well. After 3× cell wash by using FACS washing buffer (PBS+2% FBS), 100 μl/well hybridoma supernatant was added into each well for incubation at 4° C. for 30 min. Again, cells were washed 3 times by using FACS washing buffer and then incubated with 100 μl/well goat anti-mIgG-FITC (1:400 dilution) at 4° C. for another 30 min. After a final 3× wash using FACS washing buffer, cells were analyzed by flow Cytometry.
Description for human FcγRIIIa-F176: as §2
Description for mouse FcγRI-his: as §2
Description for mouse FcγRIIB-his: as §2

B1: IMAB362 (antibody, human IgG1, V domains shown)
VH: QVQLQQPGAELVRPGASVKLSCKASGYTFTSYWINWVKQRPGQGLEWIGNIYPSDSYTNYNQKFKDKATLTVDKSSSTAYMQLSSPTSEDSAVYYCTRSWRGNSFDYWGQGTTLTVSS
VL: DIVMTQSPSSLTVTAGEKVTMSCKSSQSLLNSGNQKNYLTWYQQKPGQPPKLLIYWASTRESGVPDRFTGSGSGTDFTLTISSVQAEDLAVYYCQNDYSYPFTFGSGTKLEIK
notes: chimeric IgG1 benchmark antibody, expressed according to US2009169547A1; also called IMAB362-analog; IMB362
One may read the EC50 as the midpoint of the concentration-response curve. What is called Kd is the free concentration of one partner at which half of the binding sites on the other are occupied at equilibrium, for simple one-to-one binding. A high value points to a looser complex. For B1, the EC50 with human CLDN18.2 [1] is 15300 µg/mL; with human CLDN18.2 [2] it was about 16800 µg/mL; with human CLDN18.2 [3], 4.05 µg/mL; with human CLDN18.2 [4], 0.42 µg/mL; with human CLDN18.2 [5], 2.47 µg/mL; with human CLDN18.2 [7], 0.66 µg/mL. The same molecule registered an EC50 with human CLDN18.2 [10] of 18000 µg/mL. Besides, in assay [6], the “binding percentage vs wild-type CLDN18.2” value came to 100%. The molecule further returned a Kd with human CLDN18.2 [8] of 2.58 nM. For the same molecule, the “ADCC EC50 (PBMC effectors, PI staining), NUGC4 cells” value with human CLDN18.2 [9] was determined as 0.54 µg/mL.

B2: 11F12 (antibody, V domains shown)
VH: EFQLQQSGPELEKPGASVRISCKTSGYSFTGYNMNWVKQSNGESLEWIGYIDPYYGGTRYNQKFKGKATLTVDKSSSTAYMQLKSLTSEDSAVYYCARSYYGNAFDYWGQGTTLTVSS
VL: B1 VL
notes: mouse hybridoma antibody; also called hybridoma antibody 11F12
Usually EC50 (read off the curve) stands for the concentration needed to bring the measured effect to its halfway point. As for B2, the “EC50 (read off the curve)” value in the assay with human CLDN18.2 [11] was about 1 µg/mL. In addition, the values for the 50% effective concentration (EC50) with human CLDN18.2 [12] and with human CLDN18.2 [13] were 0.605 µg/mL and 0.82 µg/mL, respectively. In addition, in the assay with human CLDN18.1, the binding result is listed as “no binding”.

B3: 12E9 (antibody, V domains shown)
VH: B2 VH with Y50N
VL: B1 VL with S28N, S32N, T78I, Y100F, S106A, I112L
notes: mouse hybridoma antibody; also called hybridoma antibody 12E9
As to B3, the “EC50 (read off the curve)” value with human CLDN18.2 [14] is about 2 µg/mL. For the same molecule, the binding result with human CLDN18.1 is given as “no binding”. In the assay with human CLDN18.2 [13], this molecule gave an EC50 of 0.52 µg/mL.

B4: 26G6 (antibody, V domains shown)
VH: B2 VH with R19K, E43Q, Y50H, G56V, G57T, R59T, K65R, Y100F
VL: B1 VL with L30F, Y100F
notes: mouse hybridoma antibody; also called hybridoma antibody 26G6
Turning to B4, the “EC50 (read off the curve)” value with human CLDN18.2 [14] was about 2 µg/mL. For the same molecule, the binding result with human CLDN18.1 is “no binding”. For the same molecule, the EC50 with human CLDN18.2 [13] worked out at 0.76 µg/mL.

B5: 18B10-HaLa-L235V/F243L/R292P/Y300L/P396L (antibody, human IgG1, kappa)
heavy: QVQLVQSGAEVKKPGASVKVSCKASGYTFTGYNMNWVRQAPGQGLEWMGNIDPYYGGTSYNQKFKGRVTMTIDKSTSTVYMELSSLRSEDTAVYYCARMYHGNAFDYWGQGTTVTVSSASTKGPSVFPLAPSSKSTSGGTAALGCLVKDYFPEPVTVSWNSGALTSGVHTFPAVLQSSGLYSLSSVVTVPSSSLGTQTYICNVNHKPSNTKVDKKVEPKSCDKTHTCPPCPAPELVGGPSVFLLPPKPKDTLMISRTPEVTCVVVDVSHEDPEVKFNWYVDGVEVHNAKTKPPEEQYNSTLRVVSVLTVLHQDWLNGKEYKCKVSNKALPAPIEKTISKAKGQPREPQVYTLPPSRDELTKNQVSLTCLVKGFYPSDIAVEWESNGQPENNYKTTPLVLDSDGSFFLYSKLTVDKSRWQQGNVFSCSVMHEALHNHYTQKSLSLSPGK
light: not shown
notes: Fc variant of 18B10-HaLa; also called 18B10-HaLa-VLPYLL; copies: 2 + 2
For B5, the binding result (with mouse FcγRIIB-his; with human C1q; in the assay with mouse FcγRI-his; in the assay with human FcγRI; in assay [16]; with Cyno FcγRIII-his) was “binds” each time. Also, the “fold increased binding vs 18B10-HaLa wild-type” value with human FcγRIIIa-V176 [15] and with human FcγRIIIa-F176 was 10 fold in each case. Moreover, the “EC50 (read off the curve)” value is about 0.2 µg/mL in the assay with human FcγRIIIa-V176 [17] and about 0.06 µg/mL in the assay with FcγRIV-his. Further, the “ADCC reporter EC50, NUGC4 targets, Jurkat-NFAT-luc-FcγRIIIA-V176 effectors” value with human FcγRIIIa-V176 [18] was 0.0097 µg/mL.
